In paper doi:10.1101/2022.05.13.491857:

Biological target: GST-Rac1^QP (UniProt P63000)
Test: pull-down

WRC^Y967A (from UniProt Q7L576 1-1253; Q9Y2A7 1-1128; Q92558 1-230; Q9NYB9 1-158; Q8WUW1 1-75) (complex)
Kd: 2000 nM
